In patent publication US20130122013A1 (Eli Lilly, published 2013):
Numbering of substitutions follows the chain as printed.

Assays:
human ferroportin 1 [1] = target: T1, human ferroportin 1 (human, UniProt Q9NP59 1-571); experiment: cell-based or functional assay
T1 sequence: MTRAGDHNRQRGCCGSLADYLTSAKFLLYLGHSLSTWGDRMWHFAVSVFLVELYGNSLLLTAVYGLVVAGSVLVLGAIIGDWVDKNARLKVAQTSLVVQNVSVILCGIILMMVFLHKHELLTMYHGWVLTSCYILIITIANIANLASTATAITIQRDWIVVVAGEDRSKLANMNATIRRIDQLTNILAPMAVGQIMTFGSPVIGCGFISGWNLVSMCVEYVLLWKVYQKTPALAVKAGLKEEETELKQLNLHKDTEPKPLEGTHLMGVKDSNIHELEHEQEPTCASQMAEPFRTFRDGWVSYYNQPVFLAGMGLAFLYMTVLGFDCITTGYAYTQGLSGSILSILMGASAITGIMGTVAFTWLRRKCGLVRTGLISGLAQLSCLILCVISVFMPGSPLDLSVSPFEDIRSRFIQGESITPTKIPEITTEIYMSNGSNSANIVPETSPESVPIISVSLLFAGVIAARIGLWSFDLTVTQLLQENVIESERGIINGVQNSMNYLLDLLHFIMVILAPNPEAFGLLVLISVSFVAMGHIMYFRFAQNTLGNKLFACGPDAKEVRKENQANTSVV

[2] = target: T2, human FPN1 C-terminally fused with GFP (human, UniProt Q9NP59 1-571, GFP reporter fused to the C-terminus ("FPN1 is C-terminally fused with GFP"). It is left out because the patent gives no letters for it.); experiment: cell-based or functional assay
T2 sequence: T1 sequence

[3] = target: T2, human FPN1 C-terminally fused with GFP; experiment: cell-based or functional assay; remark: listed apart in the source
[4] = target: T2, human FPN1 C-terminally fused with GFP; experiment: SPR, Biacore T100, 25 C, 1:1 model; FPN1-GFP captured from cell lysate on rabbit anti-GFP antibody, Mab injected
Method: (§1) The affinities of FPN1 binding Fabs and Mabs may be determined on Biacore T100 and using 1:1 binding model in the Biacore T100 evaluation software (BIAcore® AB, Upsala, Sweden). […] FPN1 is C-terminally fused with GFP. Expression of FPN1-GFP is induced by 1-10 ng/mL doxycycline for 1-24 hours. Induced cells are harvested by scraping off from flasks and then washed with 1×PBS. Cell pellets can be stored at −80° C. before use. About five million induced cells are resuspended in 10 mM phosphate buffer with 0.2% Tween-20 and protease inhibitors, e.g., Complete™ Protease Inhibitor Cocktail Tablet (Roche Diagnostics Corp., Indianapolis, Ind.). Three cycles of freeze/thaw/sonication are used to lyse the cells. The lysate is diluted two-fold with Biacore running buffer and centrifuged to remove debris.
(§2) On Biacore T100, rabbit anti-GFP antibody or goat anti-GFP antibody is immobilized onto flow cell 1 to 4 of a CMS chip at 5000-15000 Rus. FPN1-GFP is captured onto flow cell 2, 3, or 4 from the lysate of induced cells. Flow cell 1 is used as reference. Then all flow cells are injected with different concentrations of antibodies to evaluate the binding and kinetics.

[5] = target: T2, human FPN1 C-terminally fused with GFP; experiment: SPR, Biacore T100, 37 C, 1:1 model; FPN1-GFP captured from cell lysate on rabbit anti-GFP antibody, Fab injected
Method: as §1, §2

human ferroportin 1 [6] = target: T1, human ferroportin 1; experiment: inhibition of binding of 30 nM biotinylated hepcidin to FPN/293 cells, ELISA of lysate; antibody at 7.8 nM; mean
Method: (§3) Next, 65 μL of lysing buffer (0.5% Triton X-100, 10 mM EDTA) are added to all the wells and the plates are shaken for 10 minutes. Next, 50 μL of the solution in each well is transferred to individual wells of a streptavidin coated Greiner microtiter plate (60 μL of 2 μg/mL streptavidin (Sigma, St. Louis, Mo.; catalog no. S4762) in PBS, incubated at 4° C. overnight, washed 2 times (0.1% Tween 20, TBS), blocked with casein/PBS), and then incubated for one hour at room temperature. […] After incubating one hour at room temperature, the plate is washed 4× and 50 μL of OPD substrate (Sigma; catalog no. P6912) is added. The reaction is stopped with 100 μL 1 N HCl after 4 minutes. Absorbance at 490 nm (A₄₉₀) is read using an appropriate ELISA plate reader.

human ferroportin 1 [7] = target: T1, human ferroportin 1; experiment: inhibition of binding of 30 nM biotinylated hepcidin to FPN/293 cells, ELISA of lysate; antibody at 500 nM; mean
Method: as §3

human ferroportin 1 [8] = target: T1, human ferroportin 1; experiment: inhibition of binding of 30 nM biotinylated hepcidin to FPN/293 cells, ELISA of lysate; antibody at 31.25 nM; mean
Method: as §3

human ferroportin 1 [9] = target: T1, human ferroportin 1; experiment: inhibition of binding of 30 nM biotinylated hepcidin to FPN/293 cells, ELISA of lysate; antibody at 2000 nM; mean
Method: as §3

human ferroportin 1 [10] = target: T1, human ferroportin 1; experiment: inhibition of binding of 30 nM biotinylated hepcidin to FPN/293 cells, ELISA of lysate; antibody at 125 nM; mean
Method: as §3

[11] = target: T2, human FPN1 C-terminally fused with GFP; experiment: SPR, Biacore T100, 37 C, 1:1 model; FPN1-GFP captured from cell lysate on goat anti-GFP antibody, Fab injected; n = 3
Method: as §1, §2

[12] = target: T2, human FPN1 C-terminally fused with GFP; experiment: SPR, Biacore T100, 37 C, 1:1 model; FPN1-GFP captured from cell lysate on goat anti-GFP antibody, Fab injected; n = 4
Method: as §1, §2

**Q.** For Control human IgG4 (antibody), which Percentage inhibition of mature hepcidin induced increase in cellular ferritin, Caco-2 cells, antibody at 2.22E-7 M (human ferroportin 1 [1]) is on record?
**A.** The Percentage inhibition of mature hepcidin induced increase in cellular ferritin, Caco-2 cells, antibody at 2.22E-7 M was 24.2%.

**Q.** And the Percentage inhibition of mature hepcidin induced increase in cellular ferritin, Caco-2 cells, antibody at 2.47E-8 M (human ferroportin 1 [1])?
**A.** Its Percentage inhibition of mature hepcidin induced increase in cellular ferritin, Caco-2 cells, antibody at 2.47E-8 M is 22.1%.

**Q.** And the Percentage inhibition of mature hepcidin induced increase in cellular ferritin, Caco-2 cells, antibody at 2.7E-9 M (human ferroportin 1 [1])?
**A.** The Percentage inhibition of mature hepcidin induced increase in cellular ferritin, Caco-2 cells, antibody at 2.7E-9 M was 22.4%.

**Q.** What about the Percentage inhibition of mature hepcidin induced increase in cellular ferritin, Caco-2 cells, antibody at 3.0E-10 M (human ferroportin 1 [1]) of the same molecule?
**A.** Its Percentage inhibition of mature hepcidin induced increase in cellular ferritin, Caco-2 cells, antibody at 3.0E-10 M is 15.5%.

**Q.** And the Percentage inhibition of mature hepcidin induced increase in cellular ferritin, Caco-2 cells, antibody at 6.67E-7 M (human ferroportin 1 [1])?
**A.** Its Percentage inhibition of mature hepcidin induced increase in cellular ferritin, Caco-2 cells, antibody at 6.67E-7 M is 18.7%.

**Q.** And the Percentage inhibition of mature hepcidin induced increase in cellular ferritin, Caco-2 cells, antibody at 7.4E-8 M (human ferroportin 1 [1])?
**A.** The Percentage inhibition of mature hepcidin induced increase in cellular ferritin, Caco-2 cells, antibody at 7.4E-8 M was 21.1%.

**Q.** What about the Percentage inhibition of mature hepcidin induced increase in cellular ferritin, Caco-2 cells, antibody at 8.0E-9 M (human ferroportin 1 [1]) of the same molecule?
**A.** The Percentage inhibition of mature hepcidin induced increase in cellular ferritin, Caco-2 cells, antibody at 8.0E-9 M was 16.1%.

**Q.** What about the Percentage inhibition of mature hepcidin induced increase in cellular ferritin, Caco-2 cells, antibody at 9.0E-10 M (human ferroportin 1 [1]) of the same molecule?
**A.** The Percentage inhibition of mature hepcidin induced increase in cellular ferritin, Caco-2 cells, antibody at 9.0E-10 M was 17.5%.

B1: Mab 1G9 (antibody, mouse IgG1, kappa, V domains shown)
VH: QVQLKQSGAELVRPGTSVKVSCKASGYAFTSFLIEWLKQRPGQGLEWIGTINPRTGGTKYNEKFRGKATLTADKSSSTAYMQLNSLTSDDSAVYFCVREFFDYWGQGTSLTVSS
VL: ETTVTQSPSYLAASPGETITINCRASKSISKYLAWFQEKPGKTNKLLIYAGSKLHSGIPSRFSGSGSGTDFTLTISSLEPEDFAMYYCFQHNEYPYTFGGGTKLELKR
notes: also called mouse 1G9; murine Mab 1G9
**Q.** For B1, which “Percent (%) Inhibition of Mature Human Hepcidin-induced Internalization and Degradation, Mab at 7.4 nM” value [2] is on record?
**A.** Its value is 24.3%.

**Q.** And the “Percent (%) Inhibition of Mature Human Hepcidin-induced Internalization and Degradation, Mab at 22 nM” value [2]?
**A.** The value was 49.9%.

**Q.** And the “Percent (%) Inhibition of Mature Human Hepcidin-induced Internalization and Degradation, Mab at 67 nM” value [2]?
**A.** The value was 61.8%.

**Q.** And the “Percent (%) Inhibition of Mature Human Hepcidin-induced Internalization and Degradation, Mab at 200 nM” value [2]?
**A.** Its value is 62.4%.

**Q.** What about the “Percent (%) Inhibition of Mature Human Hepcidin-induced Internalization and Degradation, Mab at 600 nM” value [2] of the same molecule?
**A.** The value was 67.9%.

**Q.** What about the “Absolute IC50 of inhibition of hepcidin-25-induced internalization and degradation of FPN1-GFP” value [3] of the same molecule?
**A.** Its value is 18.8 nM.

**Q.** And the “Relative IC50 of inhibition of hepcidin-25-induced internalization and degradation of FPN1-GFP” value [3]?
**A.** Its value is 9.2 nM.

**Q.** What about the “Top % Inhibition of hepcidin-25-induced internalization and degradation of FPN1-GFP” value [3] of the same molecule?
**A.** The value was 69%.

**Q.** And the Kd [4]?
**A.** Its Kd is 0.728 nM.

**Q.** And the koff [4]?
**A.** Its koff is 9.81e-05 s⁻¹.

**Q.** What about the kon [4] of the same molecule?
**A.** Its kon is 135000 M⁻¹ s⁻¹.

B2: Fab 34A9 (Fab, V domains shown)
VH: B1 VH with S31N, R54E
VL: ETTVTQSPSYLAASPGETITINCRASKSISKYLAWFQEKPGKTNKLLIYAGSTLHSGIPSRFSGSGSGTDFTLTISSLEPEDFAMYYCQQHNEYPYTFGGGTKLELK
notes: Mouse Fab; also called mouse Fab 34A9
**Q.** B2 was tested. Which Kd [5] did it give?
**A.** The Kd was 41.5 nM.

**Q.** What about the koff [5] of the same molecule?
**A.** The koff was 0.00262 s⁻¹.

**Q.** And the kon [5]?
**A.** The kon was 63200 M⁻¹ s⁻¹.

B3: Mab L2.2-4 (antibody, human IgG4 S228P, kappa, F234A L235A, V domains shown)
VH: QVQLVQSGAEVKKPGSSVKVSCKASGYAFTSFLIEWVRQAPGQGLEWMGTSNPRTGGRKYKEKFRGRVTITADKSTSTAYMELSSLRSEDTAVYYCAREFFDYWGQGTTVTVSS
VL: DIQMTQSPSSLSASVGDRVTITCRASKSISKYTAWYQQKPGKAPKLLIYAGSKLRSGVPSRFSGSGSGTDFTLTISSLQPEDFATYYCQQHNEYPYTFGGGTKVEIKR
**Q.** What does the source list for B3?
**A.** % Inhibition (human ferroportin 1 [6]): -0.1%; % Inhibition (human ferroportin 1 [7]): 99.8%; % Inhibition (human ferroportin 1 [8]): 27.5%; % Inhibition (human ferroportin 1 [9]): 85.1%; % Inhibition (human ferroportin 1 [10]): 76.5%; Absolute IC50 of inhibition of hepcidin-25-induced internalization and degradation of FPN1-GFP [3]: 6.2 nM; Relative IC50 of inhibition of hepcidin-25-induced internalization and degradation of FPN1-GFP [3]: 4.8 nM; Top % Inhibition of hepcidin-25-induced internalization and degradation of FPN1-GFP [3]: 81.6%; EC50 of inhibition of mature hepcidin induced increase in cellular ferritin, Caco-2 cells (human ferroportin 1 [1]): 193 nM; Percentage inhibition of mature hepcidin induced increase in cellular ferritin, Caco-2 cells, Mab at 2.22E-7 M (human ferroportin 1 [1]): 53.8%; Percentage inhibition of mature hepcidin induced increase in cellular ferritin, Caco-2 cells, Mab at 2.47E-8 M (human ferroportin 1 [1]): 30.1%; Percentage inhibition of mature hepcidin induced increase in cellular ferritin, Caco-2 cells, Mab at 2.7E-9 M (human ferroportin 1 [1]): 39.6%; Percentage inhibition of mature hepcidin induced increase in cellular ferritin, Caco-2 cells, Mab at 3.0E-10 M (human ferroportin 1 [1]): 24.1%; Percentage inhibition of mature hepcidin induced increase in cellular ferritin, Caco-2 cells, Mab at 6.67E-7 M (human ferroportin 1 [1]): 61.7%; Percentage inhibition of mature hepcidin induced increase in cellular ferritin, Caco-2 cells, Mab at 7.4E-8 M (human ferroportin 1 [1]): 40.6%; Percentage inhibition of mature hepcidin induced increase in cellular ferritin, Caco-2 cells, Mab at 8.0E-9 M (human ferroportin 1 [1]): 39.5%; Percentage inhibition of mature hepcidin induced increase in cellular ferritin, Caco-2 cells, Mab at 9.0E-10 M (human ferroportin 1 [1]): 24.4%

B4: Fab 3D8 (Fab, V domains shown)
VH: B3 VH with R58T
VL: DIQMTQSPSSLSASVGDRVTITCRASKSISKYTAWYQQKPGKAPKLLIYAGSKLHSGVPSRFSGSGSGTDFTLTISSLQPEDFATYYCQQHNEYPYTFGGGTKVEIK
notes: Humanized form of mouse Fab 1G9 (VH1-69 and O2 frameworks); also called human 3D8
**Q.** With B4 as the molecule, how does the Kd [11] read?
**A.** The Kd was 6.29 nM.

**Q.** And the koff [11]?
**A.** The koff was 0.00206 s⁻¹.

**Q.** And the kon [11]?
**A.** The kon was 328000 M⁻¹ s⁻¹.

**Q.** What about the Kd [5] of the same molecule?
**A.** The Kd was 10.4 nM.

**Q.** What about the koff [5] of the same molecule?
**A.** Its koff is 0.002 s⁻¹.

**Q.** And the kon [5]?
**A.** The kon was 192000 M⁻¹ s⁻¹.

B5: Fab Combi11 (Fab, V domains shown)
VH: B3 VH with G57R, R58T, E62S
VL: B4 VL with L54R, S56W
notes: also called human Combi11
**Q.** For B5, which Kd [11] is on record?
**A.** The Kd was 2.4 nM.

**Q.** What about the koff [11] of the same molecule?
**A.** Its koff is 0.00637 s⁻¹.

**Q.** What about the kon [11] of the same molecule?
**A.** Its kon is 2.31e+06 M⁻¹ s⁻¹.

B6: Fab L2.2-4 (Fab, V domains shown)
VH: B3 VH
VL: B4 VL with H55R
notes: also called human L2.2-4
**Q.** What does the source list for B6?
**A.** Kd [11]: 1.96 nM; koff [11]: 0.00079 s⁻¹; kon [11]: 431000 M⁻¹ s⁻¹

B7: Fab 4A10-3 (Fab, V domains shown)
VH: B3 VH
VL: B4 VL with S56W
notes: also called human 4A10-3
**Q.** For B7, which Kd [12] is on record?
**A.** The Kd was 1.76 nM.

**Q.** And the koff [12]?
**A.** Its koff is 0.00148 s⁻¹.

**Q.** What about the kon [12] of the same molecule?
**A.** Its kon is 844000 M⁻¹ s⁻¹.
